Results taken from publication PMC4068289.

Biological target: human amyloid β 1–40 carrying the A2V mutation (Aβ_(1–40A2V)) (human)
Assay: far-Western, overlay or dot blot

## human amyloid β 1–40 carrying the A2V mutation (Aβ_(1–40A2V)) (peptide)
  fold increase in the proportion of A11-stained oligomers against WT: 3 fold
